Test results reported in patent publication US7871782B2, “Specific binding members against synaptophysin” (The University Court of the University of Aberdeen, priority 2004, dated 2011).

B1: FITC-C1-3 scAb: C1-3 scAb labelled with FITC (conjugate)
scFv: MAEVQLLESGGGLVQPGGSLRLSCAASGFTFSSYAMSWVRQAPGKGLEWVSTIAASGPSTGYADSVKGRFTISRDNSKNTLYLQMNSLRAEDTAVYYCAKTTAKFDYWGQGTLVTVSSGGGGSGGGGSGGGGSTDIQMTQSPSSLSASVGDRVTITCRASQSISSYLNWYQQKPGKAPKLLIYSASRLQSGVPSRFNGSGSGTDFTLTISSLQPEDFATYYCQQLQRKPTTFGQGTKVEIKRGAAAPSVFIFPPSDEQLKSGTASVVCLLNNFYPREAKVQWKVDNALQSGNSQESVTEQDSKDSTYSLSSTLTLSKADYEKHKVYACEVTHQGLSSPVTKSFNRGESHHHHHH

Key:
HSCs = assay: Effect of scAb incubation on HSC viability (attachment, protein assay); format: cell-based, human; conditions: 3 hours incubation, 5 μg scAb or indicated chemical, FIG. 12
Protocol: Effect of scAb incubation on HSC viability. HSCs seeded into 24 well plates were incubated in 0.3 mls culture medium containing 5 μg scAb or the indicated-chemical. Cells were incubated for 3 hours prior to removal of medium and washing with 1×PBS. Attachment (as a measure of viability) was determined by a direct protein assay in the culture wells.

human HSCs [1] = assay: HSC viability with gliotoxin and C1-3-gliotoxin conjugate; format: cell-based; conditions: 1.5 uM gliotoxin; 10 ug C1-3-gliotoxin conjugate in 500 ul medium; FIG. 14
Protocol: HSC viability. Human HSCs in 24 well plate culture were treated with 500 ul medium containing either DMSO vehicle; 1.5 uM gliotoxin (750 pmoles); 20 ul C1-3 scAb at 1 mg/ml (20 ug C1-3 scAb); or 20 ul C1-3-gliotoxin conjugate at 0.5 mg/ml (10 ug C1-3 scAb-250 pmoles C1-3 scAb*/1000 pmoles gliotoxidn). *0.5 mg C1-3 protein/ml stock=12.5 uM=12.5 nmoles/ml=12.5 pmol/ul

human HSC = assay: FACS analysis of human HSC cultures; format: cell-based; conditions: co-staining under native conditions prior to fixing, 1 hour 37° C., FIG. 10
Protocol: FACS analysis of human HSC incubated without (UPPER PANEL) or with (LOWER PANEL) primary antibodies—i.e. FITC-C13 scAb (FITC) and a mouse monoclonal antibody to α-smooth muscle actin (αsma-APC). Anti-α-smooth muscle actin antibody was detected using a biotin conjugated secondary antibody followed by fluorophore-streptavidin conjugate incubation as outlined in the Methods section. Figures represent the percentage of cells in each quadrant. Data are typical of 3 separate cell preparations.
FITC-C1-3 scAb was added to culture medium (200 μg/10 mls) and incubated with a confluent (10 cm diameter dish) culture of HSCs for 1 hour at 37° C. The medium was then removed and the cells were washed in PBS. The cells were then detached from the culture substratum non-enzymatically using cell dissociation solution (Sigma, Poole, UK), pelleted by centrifugation and fixed/permeabilised using BD cytofix/cytoperm (BD Biosciences, Oxford, UK). After 15 minutes, the cells were washed in 0.5 mls 1× wash/perm buffer (BD Biosciences, Oxford, UK) and incubated with a mouse anti-α-smooth muscle actin monoclonal antibody (Sigma, Poole, UK) diluted in 1× wash/perm buffer. […] The cells were analysed by flow cytometry (LSR I, BD, Oxford, UK). […]

human HSCs [2] = assay: Uptake of scAb and conjugates by human HSCs in culture (Western blot of medium); format: cell-based; conditions: 5 μg scAb in 0.3 mls medium, FIG. 11
Protocol: Uptake of C1-3 scAb and C1-3-conjugates by human HSCs in culture. HSCs seeded into 24 well plates were incubated in 0.3 mls culture medium containing 5 μg scAb. Samples of medium were taken at the indicated times and subjected to Western blotting to detect scAb using HRP-conjugated anti-human Cκ light chain antibody (UPPER PANEL) and serum albumin (LOWER PANEL) as a loading control. Results typical of 4 separate experiments.

[3] = test system: human hepatic stellate cells; assay: Fluorescence microscopy of FITC-labelled scAb with cells; format: cell-based
Protocol: (§1) FITC-C1-3 scAb was tested for its ability to interact with hepatic stellate cells in culture by fluorescence microscopy. Human hepatic stellate cells were seeded (1×10^3 cells per chamber) on chamber slides (Nunclon, Naperville) in complete medium prior to experimentation. Cells were washed twice in phosphate buffered saline (PBS) and incubated in 500 μl Hepes/HBSS buffer (0.14M NaCl, 5.4 mM KCl, 0.34 mM Na2HPO4, 0.94 mm KH2PO4, 5.6 mM glucose, 1 mM CaCl2, 6 mM HEPES, 4 mM NaHCO3 pH7.4) containing 10 μg scAb or FITC-C1-3 scAb for 1 h at room temperature in the dark. The cells were then washed in PBS and mounted with Vectashield mounting medium (Vector laboratories, Burlingame, Calif.) containing 4′,6′ diamindino-2 phenylindole (DAPI) to stain cell nuclei and coverslips applied. Florescence microscopy was carried out using a Zeiss Axeola II microscope with a Photometrics Sensis camera, and data captured using the Smart Capture programme. Human hepatocytes (UK Human Tissue Bank) were originally cultured in a collagen-coated 24 well plate (1×10^5/well) and maintained in William's medium E supplemented with 80 units/ml penicillin and 80 μg/ml streptomycin.

human hepatocytes = assay: as above; format: cell-based
Protocol: as §1

[4] = test system: hepatic stellate cell and hepatocytes co-cultured; format: cell-based, human
Protocol: For co-culture experiments, hepatic stellate cells were seeded into hepatocytes cultures (1×10^3 cells per well) and cultured for 24 h prior to experimentation. The C1-3 or FITC-C1-3 scAb was incubated as outlined for pure hepatic stellate cell cultures except that after 1 hour incubation and washing, the cells were harvested by trypsinisation and centrifugation at 1000 rpm for 5 min. The cell pellet was then resuspended in 0.4% formaldehyde/10^6 cells, applied onto glass slides by cytocentrifugation and mounted with Vectashield containing DAPI. Slides were viewed by fluorescence microscopy as before.

COS-7 cells = assay: Fluorescence binding to cells; format: cell-based
HepG2 cells = assay: Fluorescence binding to cells; format: cell-based
human HSCs [5] = assay: Fluorescence microscopy without fixation: effect of peptides and monensin on FITC-C1-3 scAb binding; format: cell-based; conditions: 10 μg scAb, 1 hour, no fixation, FIG. 13
Protocol: Effect of synaptophysin peptides and monensin on FITC-C1-3 scAb binding to human HSCs. Human HSCs seeded into 24 well plates were washed and incubated in 500 μl Hepes/HBSS per well for 1 hour containing either: 10 μg C1-3 scAb; 10 μg FITC-C1-3 scAb; 10 μg FITC-C1-3 scAb and 0.25 nmoles of the target peptide; 10 μg FITC-C1-3 scAb and 2.5 nmoles of the target peptide; 10 μg FITC-C1-3 scAb and 25 nmoles of the target peptide; 10 μg FITC-C1-3 scAb and 25 nmoles of the target peptide P1; 10 μg FITC-C1-3 scAb and 2.5 μM monensin; 10 μg FITC-C1-3 scAb and 15 μM monensin; 10 μg FITC-3A8 scAb (scAb raised to microcystin and not expected to bind to HSCs). Cells incubated with monensin were preincubated for 10 minutes. Just prior to addition of scAb, the medium was changed and cells were re-dosed with monensin. […] Bar=μm. Monen=monensin; P1=the […] peptide (SEQ ID NO 27); P2=the target peptide.
HSCs seeded into 24 well plates were washed with Hepes/HBSS and then incubated at 37° C. in 500 μl/well Hepes/HBSS containing 10 μg scAb with or without additional compounds. After 1 hour, the cells were washed 3 times with 500 μl Hepes/HBSS. Cells were analysed using an Axiovert 100 microscope (Zeiss, Germany) using filter set #9 (BP 450-490 nm; LP 515 nm).

Molecule | toxicity to HSCs (attachment as measure of viability) (HSCs) | killing of human HSCs (human HSCs [1]) | binding to α-smooth muscle actin positive human HSCs (FACS) (human HSC) | association with HSCs: change of culture medium concentration of scAb (human HSCs [2]) | green fluorescence associated with hepatic stellate cells ([3]; 10 μg scAb, 1 h, room temperature) | location of fluorescence in hepatic stellate cells ([3]; mounting medium with DAPI) | green fluorescence associated with human hepatocytes (human hepatocytes) | green fluorescence in hepatic stellate cell/hepatocyte co-cultures [4] | fluorescence binding to COS-7 cells (COS-7 cells) | fluorescence binding to HepG2 cells (HepG2 cells) | association of FITC-labelled scAb with HSCs (human HSCs [5])
CN1C(=O)[C@]23CC4=CC=C[C@H](O)[C@H]4N2C(=O)[C@@]1(CO)SS3 [gliotoxin] | kill HSCs | killed human HSCs | – | – | – | – | – | – | – | – | –
B1 | – | – | all the cells bound C1-3 scAb | reduction in culture medium concentrations | fluorescence was associated with hepatic stellate cells | fluorescence was located around the nuclear and cell membranes | no associated green fluorescence | Fluorescence was observed on stellate cells whilst hepatocytes consistently failed to display detectable levels of associated green fluorescence | not detected | not detected | associated with HSCs
